The target of data set [1] is T1, SsoRadA (Saccharolobus solfataricus, UniProt Q55075).
T1 construct: gene radA
T1 sequence (Q55075 1-324): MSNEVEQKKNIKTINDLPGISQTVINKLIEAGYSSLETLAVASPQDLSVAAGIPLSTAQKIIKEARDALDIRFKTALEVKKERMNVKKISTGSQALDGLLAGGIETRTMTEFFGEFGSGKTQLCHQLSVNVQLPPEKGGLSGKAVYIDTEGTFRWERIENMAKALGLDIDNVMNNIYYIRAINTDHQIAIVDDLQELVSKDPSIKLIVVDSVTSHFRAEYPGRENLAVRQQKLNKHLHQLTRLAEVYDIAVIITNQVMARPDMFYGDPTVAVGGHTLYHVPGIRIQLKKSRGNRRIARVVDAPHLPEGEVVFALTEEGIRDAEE
Description: TLC ATPase assay, [γ-32P]ATP. In kind it is biochemical.

The target of data set [2] is T1, SsoRadA. Description: filter binding.
Data set [3] deals with T2, SsoRadA (Saccharolobus solfataricus, UniProt Q55075 1-324).
T2 sequence: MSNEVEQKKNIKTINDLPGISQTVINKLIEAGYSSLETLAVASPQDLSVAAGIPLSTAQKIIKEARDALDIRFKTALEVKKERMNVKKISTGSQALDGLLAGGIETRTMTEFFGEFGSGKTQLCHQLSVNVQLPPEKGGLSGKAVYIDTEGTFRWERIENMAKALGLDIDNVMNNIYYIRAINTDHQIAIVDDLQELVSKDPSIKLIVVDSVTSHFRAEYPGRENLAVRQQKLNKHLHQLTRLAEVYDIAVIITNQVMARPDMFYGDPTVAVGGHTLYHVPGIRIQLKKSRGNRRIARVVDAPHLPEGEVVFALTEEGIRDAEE
Description: filter binding; 10 mM Mg2+, 3 uM ATP; Filter binding: 40 mM HEPES pH 7.0, 50 mM KCl, 10 mM CaCl2, MgCl2 or MnCl2, 20 pmol SsoRadA, 3 uM ATP where included, ssDNA varied; temperature not stated. The note with it: protein: recombinant; single strand.

The target in data set [4] is T2, SsoRadA. The data set can be described thus: filter binding; 10 mM Mn2+, 3 uM ATP; Filter binding: 40 mM HEPES pH 7.0, 50 mM KCl, 10 mM CaCl2, MgCl2 or MnCl2, 20 pmol SsoRadA, 3 uM ATP where included, ssDNA varied; temperature not stated. The note with it: protein: recombinant; single strand.
Data set [5] concerns the target T2, SsoRadA. The data set can be described thus: filter binding; 10 mM Mn2+, no ATP; Filter binding: 40 mM HEPES pH 7.0, 50 mM KCl, 10 mM CaCl2, MgCl2 or MnCl2, 20 pmol SsoRadA, 3 uM ATP where included, ssDNA varied; temperature not stated. The note with it: protein: recombinant; single strand.
Substrate in data set [6]: Nc1ncnc2c1ncn2[C@@H]1O[C@H](COP(=O)(O)OP(=O)(O)OP(=O)(O)O)[C@@H](O)[C@H]1O
Description: TLC ATPase assay, initial rates. It is filed as biochemical, Saccharolobus solfataricus. As to conditions: 10 mM Mg2+, 20 μM (nucleotides) φX174 ssDNA, 0.5 μM SsoRadA, 25 mM Tris acetate pH 7.5, 65°C.

By IC50 is commonly meant the midpoint of a concentration-inhibition curve. A high value points to weaker potency. By Kd is commonly meant a measure of binding affinity in units of concentration. For orientation: Km means the concentration of substrate that gives half-maximal velocity. One may read the kcat as the number of substrate molecules converted per active site and unit of time at saturation.

As for `Nc1ncnc2c1ncn2[C@@H]1O[C@H](COP(=O)(O)OP(=O)(O)O)[C@@H](O)[C@H]1O` [ADP], inhibition on SsoRadA [1] was half-maximal at 112 µM (IC50). On SsoRadA [2], `Nc1ncnc2c1ncn2[C@@H]1O[C@H](COP(=O)(O)OP(=O)(O)OP(=O)(O)O)[C@@H](O)[C@H]1O` [ATP] displayed a Kd of 1.13 ± 0.44 µM. As for `Nc1ncnc2c1ncn2[C@@H]1O[C@H](CO[P@](=O)(O)O[P@](=O)(O)O[P@@](=O)(O)S)[C@@H](O)[C@H]1O` [ATPγS], the IC50 against SsoRadA [1] was 87.8 µM. That is a double-digit micromolar value.

B1: 63-mer oligonucleotide (ssDNA)
DNA: ACAGCACCAATGAAATCTATTAAGCTCCTCATCGTCCGCAAAAATATCGTCACCTCAAAAGGA
Take B1: the results for the equilibrium dissociation constant (Kd) with SsoRadA [3], in the data set with SsoRadA [4] and with SsoRadA [5] were 0.0213 ± 0.0016 µM, 0.0231 ± 0.0144 µM and 0.0824 ± 0.0132 µM, respectively.

B2: SsoRadA (Saccharolobus solfataricus P2) (protein)
chain: MSNEVEQKKNIKTINDLPGISQTVINKLIEAGYSSLETLAVASPQDLSVAAGIPLSTAQKIIKEARDALDIRFKTALEVKKERMNVKKISTGSQALDGLLAGGIETRTMTEFFGEFGSGKTQLCHQLSVNVQLPPEKGGLSGKAVYIDTEGTFRWERIENMAKALGLDIDNVMNNIYYIRAINTDHQIAIVDDLQELVSKDPSIKLIVVDSVTSHFRAEYPGRENLAVRQQKLNKHLHQLTRLAEVYDIAVIITNQVMARPDMFYGDPTVAVGGHTLYHVPGIRIQLKKSRGNRRIARVVDAPHLPEGEVVFALTEEGIRDAEE
As to B2, in data set [6], the Km worked out at 2.3 ± 0.47 µM and the kcat was determined as 0.0283 ± 0.0015 s⁻¹.

Values taken from PMC9950535, “Divalent metal cofactors differentially modulate RadA-mediated strand invasion and exchange in Saccharolobus solfataricus” (Bioscience Reports, 2023).
